{
  "source": "the DeepSol protein solubility set",
  "data": [
    {"assay": "soluble on expression in E. coli; label from the status in PepcDB or PDB records", "values": [
      {"sequence": "MSLPDHSLFRLRILPWCIALAMSGSYSSVWAEDDIQFDSRFLELKGDTKIDLKRFSSQGYVEPGKYNLQVQLNKQPLAEEYDIYWYAGEDDVSKSYACLTPELVAQFGLKEDVAKNLQWSHDGKCLKPGQLEGVEIKADLSQSALVISLPQAYLEYTWPDWDPPSRWDDGISGIIADYSITAQTRHEENGGDDSNEISGNGTVGVNLGPWRMRADWQTNYQHTRSNDDDDEFGGDDTQKKWEWSRYYAWRALPSLKAKLALGEDYLNSDIFDGFNYVGGSVSTDDQMLPPNLRGYAPDISGVAHTTAKVTVSQMGRVIYETQVPAGPFRIQDLGDSVSGTLHIRIEEQNGQVQEYDISTASMPYLTRPGQVRYKIMMGRPQEWGHHVEGGFFSGAEASWGIANGWSLYGGALGDENYQSAALGVGRDLSTFGAVAFDVTHSHTKLDKDTAYGKGSLDGNSFRVSYSKDFDQLNSRVTFAGYRFSEENFMTMSEYLDASDSEMVRTGNDKEMYTATYNQNFRDAGVSVYLNYTRHTYWDREEQTNYNIMLSHYFNMGSIRNMSVSLTGYRYEYDNRADKGMEGHHHHHH", "soluble on expression in E. coli": "not soluble"},
      {"sequence": "PEYQANVQILVNRKHSSAGADLTGQQADVQMITTYKELITKPVVLKPARQTLMAETDIRRSLESLKQTVSVTSTANSQVFSIGVRDKNAKASAMIANQIAATFKDQVQHIIKVNNVTIVAPAETPDQSVAPKK", "soluble on expression in E. coli": "not soluble"},
      {"sequence": "MSLEIHFEKVTSDNRKAVENLQVFAEQQAFIESMAENLKESDQFPEWESAGIYDGNQLIGYAMYGRWQDGRVWLDRFLIDQRFQGQGYGKAACRLLMLKLIEKYQTNKLYLSVYDTNSSAIRLYQQLGFVFNGELDTNGERVMEWTHQNKEGGSHHHHHH", "soluble on expression in E. coli": "soluble"},
      {"sequence": "MHHHHHHSSGVDLGTENLYFQSMKYILVTGGVISGIGKGIIASSVGTILKSCGLHVTSIKIDPYINIDAGTFSPYEHGEVFVLDDGGEVDLDLGNYERFLDIRLTKDNNLTTGKIYQYVINKERKGDYLGKTVQVVPHITDAIQEWVMRQALIPVDEDGLEPQVCVIELGGTVGDIESMPFIEAFRQFQFKVKRENFCNIHVSLVPQPSSTGEQKTKPTQNSVRELRGLGLSPDLVVCRCSNPLDTSVKEKISMFCHVEPEQVICVHDVSSIYRVPLLLEEQGVVDYFLRRLDLP", "soluble on expression in E. coli": "soluble"},
      {"sequence": "MHPRSKLSQAQRELAVDLFEEGYGSRAVANRLGVRREQVRHLEDRFRLHGRLCLVSKPTKKQYSFDTKMEILRRYRTGELKSDLAKEYGLSSPNLISHWVWQVNKGGSDALQPKPKGRPKGSGQSVPMTEEDTLRRENELLKAEVAYLKKLRDLREQRRG", "soluble on expression in E. coli": "not soluble"},
      {"sequence": "MNIFDHYRQRYEAAKDEEFTLQEFLTTCRQDRSAYANAAERLLMAIGEPVMVDTAQEPRLSRLFSNRVIARYPAFEEFYGMEDAIEQIVSYLKHAAQGLEEKKQILYLLGPVGGGKSSLAERLKSLMQLVPIYVLSANGERSPVNDHPFCLFNPQEDAQILEKEYGIPRRYLGTIMSPWAAKRLHEFGGDITKFRVVKVWPSILQQIAIAKTEPGDENNQDISALVGKVDIRKLEHYAQNDPDAYGYSGALCRANQGIMEFVEMFKAPIKVLHPLLTATQEGNYNGTEGISALPFNGIILAHSNESEWVTFRNNKNNEAFLDRVYIVKVPYCLRISEEIKIYEKLLNHSELTHAPCAPGTLETLSRFSILSRLKEPENSSIYSKMRVYDGESLKDTDPKAKSYQEYRDYAGVDEGMNGLSTRFAFKILSRVFNFDHVEVAANPVHLFYVLEQQIEREQFPQEQAERYLEFLKGYLIPKYAEFIGKEIQTAYLESYSEYGQNIFDRYVTYADFWIQDQEYRDPDTGQLFDRESLNAELEKIEKPAGISNPKDFRNEIVNFVLRARANNSGRNPNWTSYEKLRTVIEKKMFSNTEELLPVISFNAKTSTDEQKKHDDFVDRMMEKGYTRKQVRLLCEWYLRVRKSS", "soluble on expression in E. coli": "soluble"},
      {"sequence": "MDTKNLTAVQLMELDSCTRCGECVKWCPTYAASGQKPGLAPRDKILRWRQYMNKSYGLKAKLFGPTEIPQSELEEFKDDVHGCTTCGICATVCESGINTVELWESLRTNLVKKGIGPFGKQGMFPKLEHHHHHH", "soluble on expression in E. coli": "not soluble"},
      {"sequence": "MAHHHHHHMPDGQQQSAKCATQVQNGEEATRNTYPRRDDTKLHVGLDYSSFYLDTPYKIIKCMNKGSHFLYWGSDTLCGQSDQVTKEFKMNEMKKNNCEELRNSRFIFFDSQKKLLVLRYNIRKNSFNYVSDSDPIYVYFYQLHEKNFLDDNIIKENKNSLLIYPYTYVKIWESLTCYINEEVINKIEPVNKTFCSSFLEEEVEEEKKKKKGGTDLRREEEMNLCNQPYMFYSVIPRYPASKTYPKEGRVSGGSRHKKEDNVGVITAEGDGASSINMGGDGSGGINTEGDGSGGAGGINMEGDHPVDPDEPPNDHLDGA", "soluble on expression in E. coli": "not soluble"},
      {"sequence": "MNMYRVIEMYGDFEPWWFLEGWEEDIVASRKFDQYYDALKYYKTCWFRLEQESPLYKSRSDLMTIFWDPEDQRWCDECDEYLQQYHSLALLQDEQVIPDEKLRSGYEKQTSQERNRSCRMKLKLEHHHHHH", "soluble on expression in E. coli": "soluble"},
      {"sequence": "RKLTMNSNYKREDFVNETEVRWCPGCGDYAILAALQRVLPELGLPPEQHVFVSGIGCAGRLPYYMNTYGFHTIHGRATAVATGLKAMREDLCVWVITGDGDALSIGGNHLLHILRRNVNVNILLFNNQVYGLTKGQFSPTSQKGQVTKTSPKGVTSEPINPIMIALASGASFVARAVDKDPVHLASVLKKAYEHKGCSFVEIYQDCNIFNHGAFDDFAVKNNRAENTIILEDGQPLVFGAQKEKALQLDDEQFVQISIDEKTLYKHDEKNLISAMRLARLTFPDYPVPLGVYYQKDRERFTLSQEVKKRPEDLP", "soluble on expression in E. coli": "not soluble"},
      {"sequence": "MSLKEIGPNSLLLEDSHSLSQLLKKNYRWYSPIFSPRNVPRFADVSSITESPETLKAIRDFLVERYRTMSPAPTHILGFDARGFLFGPMIAVELGIPFVLMRKADKNAGLLIRSEPYEKEYKEAAPEVMTIRHGSIGKNSRVVLIDDVLATGGTALSGLQLVEASGAEVVEMVSILTIPFLKAAERIHSTAGGRYKNVRFIGLLSEDVLTEANCGDLNDYTGPRVLSCSDLLVNQ", "soluble on expression in E. coli": "soluble"},
      {"sequence": "MSAQASRQKKSDQEQRAADQALLNAAIEDNAMEQDENFTVIDKLESSGISSGDISKLKEAGYYTYESLAFTTRRELRNVKGISDQKAEKIMKEAMKFVQMGFTTGAEVHVKRSQLVQIRTGSASLDRLLGGGIETGSITEVYGEYRTGKTQLCHSLAVLCQLPIDMGGGEGKCMYIDTNATFRPERIIAIAQRYNMDSAHVLENIAVARAYNSEHLMALIIRAGAMMSESRYAVVIVDCATAHFRNEYTGRGDLAERQMKLSAFLKCLAKLADEYGVAVIITNQVVAQVDGGASMFQADAKKPIGGHIIAHMSTTRLYLRKGKGENRVAKMVQSPNLPEAEATYSITNHGIEDARED", "soluble on expression in E. coli": "not soluble"},
      {"sequence": "MTGRTGGNGSTQAQPERVMLVGVMLDKDGTGSSAARLNGFQTALAEAVELVKAAGGDSVRVETAKRDRPHTALFVGTGKAAELSEAVAADGIDLVVFNHELTPTQERNLEKELKCRVLDRVGLILAIFARRARTQEGRLQVELAQLSHLAGRLIRGYGHLQSQRGGIGMKGPGETKLETDRRLIAHRINALKKQLANLKKQRALRRKSRESGTIKTFALVGYTNVGKSSLFNRLTKSGIYAKDQLFATLDTTARRLYISPECSIILTDTVGFVSDLPHKLISAFSATLEETAQADVLLHVVDAAAPNSGQQIEDVENVLQEIHAGDIPCIKVYNKTDLLPSEEQNTGIWRDAAGKIAAVRISVAENTGIDALREAIAESCAAAPLEHHHHHH", "soluble on expression in E. coli": "not soluble"},
      {"sequence": "NNSQFFMGIPRLKFPADAPSRSTLKLEEAFHVFIPRDEWDERLAPGMWGVDLGACPGGWTYQLVKRSMFVHCVDNGMMADSLMETGQIKHHMVDGFKFEPDRKNVTWIVCDMVEKPARVAHLMGQWLLKGWAKEAIFNLKLPMKGRYDEVLQDLENLKMFLIENKVKFKLQAKHLYHDREEITIHIQCLSNISPH", "soluble on expression in E. coli": "not soluble"},
      {"sequence": "MADTSPRESKLNKQDQDLHLEIDETGLACKSEVKKRWLGARGTAGLYGNGKYYYEVTITSKGLCRVGWATLGGSLNIGKGLDSFGYGGTGMKSTHKKFDDYGLPFTLNDVIGCYLDLDSRTIWWSKNGEQFPAAFSIDVKYKNSNTCLFPAVLCQNSSLSVNFGSQPFKFPPGNQFTAVSDAPNENVNWWSYEEQNSFEHVVVKLPFAVEEDVHNEFRMHTKLMLTELKRTQCKQDKDGSIRRTLQPISKTICAFLNTDGGRLFLGVNDDKVIKGISMSKNMIYHFFGSLRHMCENFKPCSPLCRIKVSILEVIPVGVIKVKLRKADLLKEEAHDFPKLACHSVGGSFCDCFLEINKAPTKQYLLIIQVSPPNPNSRTTIFQNEEGLVYRRRMASNKCVYLDDLRRMMNEKNQVFVDLPDEARAEIDSFSKFD", "soluble on expression in E. coli": "not soluble"},
      {"sequence": "MRRAAIFFFYDERGQVDDYIFYLLEKLRPFVETIIFVSNGEISQSSEASLRSTVDETIIRENTGFDVGAYRDGLEFIGYDKLGDYDEILLLNHTFYGPVFPFSEMFSEMERRACDFWGISDHKEVSPNPFTGAGVLPRHLNSHFIAVRKAMLESIAFRNYWERMPKITDYAESVLLHESRFTGFFENLGYKSETYLDSDKYNSAYPVMIDVDQIYNDRSPILKRRLFFNDPTFLDKNAVDLPRALRVLKETSDYDLNLIWRNVLRSSDLRTLNTNAALMSVLPDKRIKGDGAAADYGKIAVCAHIYYTDMLDEILGLTGNIPVPYDFIATTNTPEKKAEIETALANRPGVKNVIVRVVEQNRGRDMSSLFISLRDLLVDDRYDLVCRLHTKKSPQVQSSMGNLFKRHMVDNLLNSRGYVHNVLDMFHDNPSVGLAIPPIFHISYPTMGFSWFANKPKVEETARLLNINVKFDENTPVAAYGTMFWFRPRALRKMFEHKWKWEEFNAEPDHVDGGFAHALERLIAYAVQNAGYTTQHIMCAHQAEHNYTMLEFKLQKLASFMPSGDFPLQCHMVSEWRKGGYPLGSHVSATPAPMPTSVKHSLAELNLAVKSSLRFRAPILFRALRPIYRGTRAILKPNSRRSGGLEHHHHHH", "soluble on expression in E. coli": "soluble"},
      {"sequence": "MPPRKIKKDPAVVAMADTLETRVKDLLEEYKKKLREVALQTAKAESDRIIATIKPKYRDMPIMEFLASPPDDFYIESGEEEEEGEAAVAVKQELPSEPDMEIDDAAAAQKTSIPIGQNSGRNTVQVKQEPEIDDDAAHETSIPIAPSGQNSGRNTAADEHRRNEIITPAGQVLPLPTLQPEKPFRAPHVDEEIAFSVNGSPLVLAGRTTATAAGKENRKKSKKSGAASKKAAAAAGPLQPETENAGTSV", "soluble on expression in E. coli": "not soluble"},
      {"sequence": "MERPISEAYFQEAKRHIPGGVSSPVRAFKAVGGTPPFLVRGEGAYVWDADGNRYLDYVMSWGPLILGHAHPKVLARVRETLERGLTFGAPSPLEVALAKKVKRAYPFVDLVRFVNSGTEATMSALRLARGYTGRPYIVKFRGNYHGHADGLLVEAGSGALTLGVPSSAGVPEEYAKLTLVLEYNDPEGLREVLKRRGEEIAAIIFEPVVGNAGVLVPTEDFLKALHEAKAYGVLLIADEVMTGFRLAFGGATELLGLKPDLVTLGKILGGGLPAAAYAGRREIMEKVAPLGPVYQAGTLSGNPLAMAAGLATLELLEENPGYYAYLEDLGARLEAGLKEVLKEKGLPHTVNRVGSMITVFFTEGPVVTFQDARRTDTELFKRFFHGLLDRGIYWPPSNFEAAFLSVAHREEDVEKTLEALRKAL", "soluble on expression in E. coli": "soluble"},
      {"sequence": "MAAEFVRKFQSFSESDKQWRAREEFIIRNLNRFEDESEIDQLLALSMVWANHVFMGCRYSNELLEKVCGMAEGIVVEDAPHFTTRDEIMKQRNQ", "soluble on expression in E. coli": "soluble"},
      {"sequence": "MNNLYRDLAPVTEAAWAEIELEAARTFKRHIAGRRVVDVSDPGGPVTAAVSTGRLIDVKAPTNGVIAHLRASKPLVRLRVPFTLSRNEIDDVERGSKDSDWEPVKEAAKKLAFVEDRTIFEGYSAASIEGIRSASSNPALTLPEDPREIPDVISQALSELRLAGVDGPYSVLLSADVYTKVSETSDHGYPIREHLNRLVDGDIIWAPAIDGAFVLTTRGGDFDLQLGTDVAIGYASHDTDTVRLYLQETLTFLCYTAEASVALSH", "soluble on expression in E. coli": "not soluble"}
    ]}
  ]
}
